Experiments:
[1] = target: T1, recombinant human IL4 (E. coli, non-glycosylated) (human, UniProt P05112 25-153); assay: titration microcalorimetry, measured at 60°C and calculated for 25°C, pH 7.4, 150 mM NaCl
T1 construct: also called hIL4; hIL-4
T1 sequence (looked up): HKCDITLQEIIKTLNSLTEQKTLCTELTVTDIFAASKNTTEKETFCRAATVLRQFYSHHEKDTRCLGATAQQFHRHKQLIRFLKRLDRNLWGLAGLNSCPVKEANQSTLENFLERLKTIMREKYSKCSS

[2] = target: T1, recombinant human IL4 (E. coli, …); assay: titration microcalorimetry, 25°C, pH 7.4, 150 mM NaCl
[3] = target: T1, recombinant human IL4 (E. coli, …); assay: cell-based or functional assay

B1: humanized 3B9 (IgG1) (antibody, V domains shown)
VH: QVTLRESGPALVKPTQTLTLTCTFSGFSLSTSGMGVSWIRQPPGKGLEWLAHIYWDDDKRYNPSLKSRLTISKDTSRNQVVLTMTNMDPVDTATYYCARRETVFYWYFDVWGRGTPVTVSS
VL: IVMTQSPDSLAVSLGERATINCKASQSVDYDGDSYMNWYQQKPGQPPKLLIYAASNLESGVPDRFSGSGSGTDFTLTISSLQAEDVAVYYCQQSNEDPPRFGGGTKVEIKR
Kd [1]: 0.011 nM | -TΔS [2]: 8.2 kcal/mol IL4 | ΔG [2]: -13.6 kcal/mol IL4 | ΔH [2]: -21.8 kcal/mol IL4 | B cell (inhibition of IL4-stimulated B lymphocyte proliferation), IC50 [3]: 0.047 nM | CD23 induction (inhibition of IL4-induced CD23 expression on B lymphocytes), IC50 [3]: 0.333 nM | IgE synthesis (inhibition of IL4-driven IgE secretion), IC50 [3]: 0.054 nM | T cell (inhibition of IL4-stimulated T lymphocyte proliferation), IC50 [3]: 0.044 nM
